{"source": "paper PMC2424043", "about": "“Organelle-specific isoenzymes of plant V-ATPase as revealed by in vivo-FRET analysis” (BMC Cell Biology, 2008)", "molecules": {"B1": {"name": "VHA-c3 (V-ATPase proteolipid subunit c, isoform 3) fused to CFP or YFP (natural protein, A. thaliana, UniProt P0DH93 1-164, looked up)", "chain": "MSTFSGDETAPFFGFLGAAAALVFSCMGAAYGTAKSGVGVASMGVMRPELVMKSIVPVVMAGVLGIYGLIIAVIISTGINPKAKSYYLFDGYAHLSSGLACGLAGLSAGMAIGIVGDAGVRANAQQPKLFVGMILILIFAEALALYGLIVGIILSSRAGQSRAE", "notes": "VHA-c3, A. thaliana, At4g38920, open reading frame without the stop codon; One molecule for the CFP and the YFP fusion; vectors 35S-CFP-NosT and 35S-YFP-NosT; List of constructs in Additional file 4; also called VHA-c-CFP; VHA-c-YFP; source: A. thaliana mesophyll protoplasts, transiently transfected, in living cells; not shown: CFP or YFP, C-terminal, kept"}}, "assay_in_all_cases": "FRET or BRET; in vivo FRET by sensitized acceptor emission (confocal laser scanning microscopy) in co-transfected A. thaliana mesophyll protoplasts; CFP fusion as donor, YFP fusion as acceptor; a FRET value of 8-10% is taken as background", "key": {"[1]": {"biological_target": "VHA-a-YFP (Mesembryanthemum crystallinum V-ATPase subunit a fused to YFP) (Mesembryanthemum crystallinum)"}, "[2]": {"biological_target": "VHA-a-YFP (Mesembryanthemum crystallinum V-ATPase subunit a fused to YFP) (Mesembryanthemum crystallinum)", "remark": "listed apart in the source"}, "[3]": {"biological_target": "T1, VHA-c\"1 (V-ATPase proteolipid subunit c\", isoform 1) fused to CFP or YFP (A. thaliana, UniProt Q9SZY7 1-180)", "T1 construct": "VHA-c\"1, A. thaliana, At4g32530, open reading frame without the stop codon; One molecule for the CFP and the YFP fusion; also called VHA-c\"-CFP; VHA-c\"-YFP; source: A. thaliana mesophyll protoplasts, transiently transfected, in living cells; not shown: CFP or YFP, C-terminal, kept", "T1 sequence (looked up)": "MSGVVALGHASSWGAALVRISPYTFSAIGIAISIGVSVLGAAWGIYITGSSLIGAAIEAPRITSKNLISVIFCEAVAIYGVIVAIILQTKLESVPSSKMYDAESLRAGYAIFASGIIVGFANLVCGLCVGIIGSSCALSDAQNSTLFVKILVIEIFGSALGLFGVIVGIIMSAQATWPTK", "settings": "partners not purified"}, "[4]": {"biological_target": "B1", "settings": "partners not purified"}, "[5]": {"biological_target": "the molecule itself"}}, "note": "Like-named read-outs stand apart in the source and are kept apart here."}
{"molecule": "VHA-A-CFP (V-ATPase catalytic subunit A fused to CFP) (from UniProt O23654 1-623) (natural protein)", "values": [{"measurement": "FRET efficiency", "setting": "[1]", "value": 44.8}]}
{"molecule": "VHA-c_(trunc) (third and fourth helices of VHA-c3) fused to CFP (domain or fragment, A. thaliana, UniProt P0DH93 80-164, looked up, VHA-c aa 80-164 (helices 3 and 4 of VHA-c3), A. thaliana; Intermediate construct of the hybrid in vector 35S-CFP-C; also called truncated VHA-c; truncated VHA-c-CFP; source: A. thaliana mesophyll protoplasts, transiently transfected, in living cells; not shown: CFP, C-terminal, kept) NPKAKSYYLFDGYAHLSSGLACGLAGLSAGMAIGIVGDAGVRANAQQPKLFVGMILILIFAEALALYGLIVGIILSSRAGQSRAE", "values": [{"measurement": "FRET efficiency", "setting": "[2]", "value": 40.2, "unit": "%"}, {"measurement": "FRET efficiency", "setting": "[3]", "value": 46.2, "unit": "%"}, {"measurement": "FRET efficiency", "setting": "[4]", "value": 40.3, "unit": "%"}]}
{"molecule": "VHA-e2 (V-ATPase subunit e, isoform 2) fused to CFP or YFP (natural protein, A. thaliana, UniProt Q9SZ13 1-70, looked up, VHA-e2, A. thaliana, At4g26710, open reading frame without the stop codon; One molecule for the CFP and the YFP fusion; also called VHA-e isoform 2; VHA-e2-CFP; source: A. thaliana mesophyll protoplasts, transiently transfected, in living cells; not shown: CFP or YFP, C-terminal, kept) MAFVVTSLIFAVVGIIASICTRICFNKGPSTNLLHLTLVITATVCCWMMWAIVYIAQMNPLIVPILSEVE", "values": [{"measurement": "FRET efficiency", "setting": "[2]", "value": 20, "unit": "%"}, {"measurement": "FRET efficiency", "setting": "[3]", "value": 20, "unit": "%"}, {"measurement": "FRET efficiency", "setting": "[4]", "value": "~20", "unit": "%"}]}
{"molecule": "VHA-e1 (V-ATPase subunit e, isoform 1) fused to CFP or YFP (natural protein, A. thaliana, UniProt Q9FLN5 1-70, looked up, VHA-e1, A. thaliana, At5g55290, open reading frame without the stop codon; One molecule for the CFP and the YFP fusion; also called VHA-e isoform 1; AtVHA-e1; source: A. thaliana mesophyll protoplasts, transiently transfected, in living cells; not shown: CFP or YFP, C-terminal, kept) MGFLITTLIFVVVGIIASLCVRICCNRGPSTNLLHLTLVITATVCCWMMWAIVYIAQMNPLIVPILSETE", "values": [{"measurement": "FRET efficiency", "setting": "[2]", "value": 20, "unit": "%"}, {"measurement": "FRET efficiency", "setting": "[4]", "value": "~20", "unit": "%"}]}
{"molecule": "VHA-c\"_(trunc) (third and fourth helices of VHA-c\"1) fused to CFP (domain or fragment, A. thaliana, UniProt Q9SZY7 88-180, looked up, VHA-c\"1 aa 88-180 (helices 3 and 4), A. thaliana; Intermediate construct of the hybrid in vector 35S-CFP-C; fused to the C-terminus of the fluorescent protein; also called truncated VHA-c\"; VHA-c\"1_(trunc); source: A. thaliana mesophyll protoplasts, transiently transfected, in living cells; not shown: CFP, N-terminal, kept) QTKLESVPSSKMYDAESLRAGYAIFASGIIVGFANLVCGLCVGIIGSSCALSDAQNSTLFVKILVIEIFGSALGLFGVIVGIIMSAQATWPTK", "values": [{"measurement": "FRET efficiency", "setting": "[3]", "value": 14.8, "unit": "%"}]}
{"molecule": "B1", "values": [{"measurement": "FRET efficiency", "setting": "[5]", "value": 20.8, "unit": "%"}]}
